Laboratory results from US11858972B2, “Micropeptides and uses thereof” (FUNDACIÓ PRIVADA INSTITUT D'INVESTIGACIÓ ONCOLÒGICA DE VALL …, priority 2018, dated 2024).

Key:
BxPC-3 cells = test: SA-β-gal staining assay; type: cell-based; details: BxPC-3, doxycycline-treated vs untreated
Source text: (§1) FIG. 5. Micropeptide of sequence SEQ ID NO: 1 overexpression induces cell cycle arrest and cellular senescence. BxPC-3 cells were transduced with an inducible lentivirus coding HA-SEQ ID NO: 1. Micropeptide of sequence SEQ ID NO: 1 expression was induced by doxycycline treatment for 4 days. (A) Phase contrast images of SEQ ID NO:1-expressing cells and control cells. (B) Cell viability analysis by CellTiter-Glo assay. (C) Cell cycle analysis by flow cytometry. Left, histogram plots. Right, quantification of the number of cells in every cell cycle phase (D) Analysis of p27 and p21 expression by qPCR. (E) Western Blot of the indicated cells using anti-HA and anti-p21 antibodies. (F) Quantification of the number of SA-β-Gal positive cells in doxycycline-treated and untreated cells. (G) Representative pictures of the cell quantified in (F). Graphs show the mean±SEM, using at least 3 technical replicates. **P<0.01 ***P<0,001 **** P<0.0001, two-tailed t-test.
For SA-β-gal staining, cells were fixed and stained using a commercial senescence β-galactosidase staining kit (Cell Signalling) following manufacture's protocol.

A549 cells = test: Cell cycle analysis by flow cytometry; type: cell-based, human
Source text: (§2) FIG. 8. SEQ ID NO: 1 overexpression reduces cell proliferation. A549 and H10 cells were transduced with an inducible lentivirus coding HA-SEQ ID NO: 1. SEQ ID NO: 1 expression was induced by doxycycline treatment for 14 days. (A) Growth curve of transduced cells over 14 days of SEQ ID NO:1 expression. (B) Cell cycle analysis by flow cytometry. Left, histogram plots. Right, quantification of the number of cells in every cell cycle phase. Graphs show the mean±SD, using at least 3 technical replicates. **** P<0.0001, two-tailed t-test.
(§3) Micropeptide of SEQ ID NO: 1 expression was induced in BxPC3 cells by treatment with doxycycline (2 μg/ml) for 4 days. Cells were fixed using 100% ethanol at 4° C., stained with Propidium Iodide, and cell cycle was analysed by flow cytometry (LSR-Fortessa cytometer). Cell viability in micropeptide of SEQ ID NO: 1-expressing cells was evaluated using CellTiter-Glo 2.0 (Promega) following manufacturer's instructions.

ubiquitylated proteins = test: Co-Immunoprecipitation using Anti-HA and Western Blot; type: binding; details: immunoprecipitation with Anti-HA
Source text: (§4) FIG. 11. Micropeptide of sequence SEQ ID NO: 1 expression changes cell ubiquitylation pattern. (A) Co-Immunoprecipitation using Anti-HA and Western Blot experiments indicate the presence of ubiquitylated proteins in the pull down of SEQ ID NO: 1 expressing cells. (B) Analysis of ubiquitylated protein levels by Western Blot in SEQ ID NO: 1 or empty vector BxPC-3 infected cells after proteasome blocking treatment with MG132.

[1] = system: protein ubiquitylation pattern in BxPC-3 infected cells; test: Ubiquitylated protein levels by Western Blot after MG132; type: cell-based; details: proteasome blocking with MG132
Source text: as §4

[2] = system: EMT regulators VIMENTIN, SLUG, SNAIL, N-CADHERIN, TWIST1, TWIST2, ZEB1 and ZEB2; test: Mesenchymal gene expression by qPCR in H10 SCC cell line; type: cell-based
Protocol: FIG. 9. SEQ ID NO: 1 overexpression impairs invasiveness and reduces mesenchymal traits in A549 and H10 cell lines. Invasion of indicated cells was analyzed in matrigel-coated inserts. (A) The undersides of membrane inserts containing invaded cells were fixed and stained with crystal violet and photographed 24 h after plating. (B) Number of invasive cells was calculated using ImageJ software. Bars plots show relative number of cells invading the chamber. (C) Analysis of several mesenchymal genes by qPCR. mRNA expression is shown relative to the control. * P<0.05, **P<0.01 two-tailed t-test.
Total RNA was extracted with Trizol® and treated with TURBO™ DNase following provider's recommendations. 1 μg of RNA was retrotranscribed using iScript™ cDNA Synthesis Kit (BioRad). Gene expression was analysed by quantitative real time PCR using PowerUp SYBR Green Master Mix (Thermo Fisher Scientific) in the 7900HT Fast Real-Time PCR System (Applied Biosystems). Cycle threshold (Ct) values were normalized to GAPDH.

[3] = system: BxPC-3 pancreatic cancer cell line; test: Cell cycle analysis by flow cytometry; type: cell-based; details: BxPC-3, expression induced by doxycycline for 4 days
Source text: as §1, §3

[4] = system: squamous cell carcinoma cell line H10; test: Cell proliferation assay (growth curve, 14 days); type: cell-based; details: H10, monitored for 14 days, vs control vector
Source text: as §2
A549 and H10 cell lines were dissociated by trypsin digestion and seeded into 24-well cell culture plates at density 5×10^3 cells/well. Every two days, cells were dissociated from wells and counted using a Neubauer chamber. Cell growth curves were monitored for 14 days.

BxPC-3 infected cells = test: Annexin V/PI assay; type: cell-based; details: BxPC-3, SEQ ID NO: 1-Puromycin conditions
Protocol: FIG. 6. Micropeptide of sequence SEQ ID NO: 1 expression induces cell death upon cellularstress. SkBR-3, HPAF II, MIA PaCa-2 and BxPC-3 cells were infected with empty or SEQ ID NO: 1-HA retroviruses, and selected by puromycin. Micropeptide of sequence SEQ ID NO: 1 expression was analyzed by qPCR (A) and by Western blot (B). (C) Phase contrast images of the indicated cells 3 days after selection with puromycin. (D) Annexin-V/PI staining of BxPC-3 infected cells with and without puromycin treatment, analyzed by Flow Cytrometry. (E) BXPC-3 cells were infected with an inducible lentivirus encoding SEQ ID NO: 1-HA, and selected with Neomycin. Micropeptide of sequence SEQ ID NO: 1 expression was induced by doxycycline, and cells were treated with Doxorubicin or Actinomycin D. (E) Cell viability of the indicated cells measured by crystal violet staining.
After lentiviral infection and puromycin selection for 72 h, infected cells were washed twice with cold PBS and resuspended in Binding Buffer at a cell density of 1×10^6 cells/mL. Following manufacturer's instructions (BD Pharmingen™) 100 μL of cells were treated with 5 μL of Annexin V-FITC. After incubation for 15 min in the dark at room temperature, 400 ul of Binding Buffer was added and each sample was supplemented with 10 μL of Propidium Iodide. Flow cytometry analysis was performed on a LSR Fortessa cytometer.

B1: SEQ ID NO: 1: highly conserved 87 aa micropeptide coded by the lncRNA TINCR; predicted ubiquitin-like protein (protein, listed as Homo sapiens)
chain: MEGLRRGLSRWKRYHIKVHLADEALLLPLTVRPRDTLSDLRAQLVGQGVSSWKRAFYYNARRLDDHQTVRDARLQDGSVLLLVSDPR
number of senescent cells (SA-β-Gal-positive cells) (BxPC-3 cells): increase | cells arrested in G1 phase (A549 cells): increase in cells arrested in G1 phase | binding to ubiquitylated proteins (ubiquitylated proteins): binds to ubiquitylated proteins | protein ubiquitylation pattern [1]: alters protein ubiquitylation pattern | expression of the EMT regulators VIMENTIN, SLUG, SNAIL, N-CADHERIN, TWIST1, TWIST2, ZEB1 and ZEB2 [2]: represses the expression | cell cycle [3]: induces cell cycle arrest in G1 phase | growth rate [4]: consistently lower growth rate | percentage of early apoptotic cells (BxPC-3 infected cells): 22.4% | percentage of late apoptotic cells (BxPC-3 infected cells): 58.6%
